US10052365B2, “Methods and products relating to GSK3β regulation” (University of Vermont and State Agricultural College, priority 2008, dated 2018)
“Also recorded” adds a separate entry of the source. Blank lines part the entries; values can stand above or below the molecule they belong to. Where no end group is shown, it is not given here. [ ]: non-standard residue; d: D form. pT = C[C@@H](OP(=O)(O)O)[C@H](N)C(=O)O; pS = N[C@@H](COP(=O)(O)O)C(=O)O

What was measured:
GSM substrate peptide = experiment: Specific activity of active GST-GSK3β wildtype and mutants; assay type: biochemical
Experimental: (§1) Active GST-GSK3β and GST-GSK3β-T^43A and GST-GSK3β-T^390 mutants were expressed and purified as described in (29). The specific activity of the wildtype and the mutants was determined using the GSM substrate peptide (Upstate, Lake Placid, N.Y.) and were as follows: GST-GSK3β (91 μmol/μg×min) and GST-GSK3β-T^43A (53 μmol/μg×min) and GST-GSK3β-T^390A (65 μmol/μg×min). In vitro GSK3β kinase assays were performed by incubating purified active wildtype GST-GSK3β or GST-GSK3β-T^43A and GST-GSK3β-T^390A mutants (400 ng) at 30° C. for 10 minutes in kinase buffer supplemented with 1 mM ATP containing [γ-^32P] ATP and GSM substrate peptide (62.5 μM) (Upstate, Lake Placid, N.Y.). Reactions were terminated by spotting onto P81 filters. Filters were washed extensively and counted in a scintillation counter. To examine the effect of p38 MAPK and Akt on GSK3β activity, purified active GSK3β or mutants were preincubated for 15 minutes at 30° C. with 500 ng recombinant active p38 MAPK or active Akt (Cell Signaling, Beverly, Mass.) prior to performing the GSK3β activity assay as described above.

GST-GSK3β [1] = target: T1, GST-GSK3β (Homo sapiens, UniProt P49841); experiment: In vitro GSK3β kinase assay with inhibitory peptides (GSM substrate); assay type: biochemical; settings: for GSK3β activity in the presence of peptide: in vitro kinase reaction, FIG. 3G
T1 construct: made in house
Experimental: as §1
For peptide inhibition assays, Phospho-S^9 (GRPRTTS(PO3H2)FAE) (SEQ ID NO:95) (20). Phospho-[…] (RIQAAAST(PO3H2)PTN) (SEQ ID NO:7) and non-phospho-T^390 (RIQAAASTPTN) (SEQ ID NO:96) peptides were synthesized and purified by UVM protein Core Facility. In vitro kinase assays were performed with purified GST-GSK3β (400 ng) in Kinase buffer supplement with 1 mM ATP containing [γ-^32P] ATP and the indicated concentrations of GSM and inhibitory peptide.

GSK3α = GSK3α (Homo sapiens, UniProt P49840); experiment: In vitro GSK3α kinase assay after preincubation with activated p38 MAPK; assay type: biochemical; settings: pre-incubated 15 min; FIG. 12
Experimental: Recombinant kinase-active GSK3α was pre-incubated in the reaction buffer alone (GSKα), with activated p38 MAPK or activated Akt (15 min). In vitro GSK3α kinase assays were then performed using GSM as the substrate. Error bars represent SD (n=3).

GSK3β-T^390A mutant = target: T2, GSK3β-T^390A mutant (Homo sapiens, UniProt P49841, T390A); experiment: GSK3β activity after preincubation with active p38 MAPK or Akt; assay type: biochemical; settings: preincubated 15 minutes at 30° C. with 500 ng kinase; FIG. 3F
T2 construct: made in house
Experimental: as §1

wild-type GSK3β = target: T3, wild-type GSK3β (Homo sapiens, UniProt P49841); experiment: as above; assay type: biochemical; settings: preincubated 15 minutes at 30° C. with 500 ng kinase; FIG. 3D
T3 construct: made in house
Experimental: as §1

GSK3β-T^43A mutant = target: T4, GSK3β-T^43A mutant (Homo sapiens, UniProt P49841, T43A); experiment: as above; assay type: biochemical; settings: preincubated 15 minutes at 30° C. with 500 ng kinase; FIG. 3E
T4 construct: made in house
Experimental: as §1

[2] = tested on: phospho-Ser^9 GSK3β in 293T cells; experiment: Western blot of phospho-Ser^9 GSK3β in treated 293T cells; assay type: cell-based; settings: 40 minutes, SB203580 5 μM, Wortmanin 1 μM, FIG. 7
Experimental: (§2) Thymocytes were isolated from wildtype, Rag^−/− or MKK6(Glu) transgenic mice.
(§3) Whole cell extracts were prepared in Triton lysis buffer (TLB) as previously described (25, 26). Nuclear extracts were made from cells as previously described (27). Immunoprecipitations and Western blotting was performed as described in (8). Anti-Akt, anti-p38 MAPK, anti-Lef, anti-c-Myc and anti-Histone (Santa Cruz Biotechnology, Santa Cruz, Calif.), anti-GSK3β, anti-β-catenin, anti-phospho-p38 MAPK and antiphospho-S^9 (Cell Signaling, Beverly, Mass.) and Anti-Flag (Stratagene, La Jolla, Calif.) were used for Western blot analysis. […] Anti-Akt, anti-p38 MAPK and Anti-GSK3β were used for immunoprecipitations. Anti-rabbit-HRP, anti-mouse-HRP (Jackson ImmunoResearch Laboratories, West Grove, Pa.) and anti-goat-HRP (Santa Cruz Biotechnology, Santa Cruz, Calif.) were used as secondary antibodies.

GST-GSK3β [3] = target: T1, GST-GSK3β; settings: references 20, 21; cited from earlier work
[4] = tested on: phosphorylation of GSK3β at Ser^389; experiment: Western blot of phospho-Ser^389 in mouse GSK3β-transfected 293T cells; assay type: cell-based; settings: FIG. 4D
Experimental: (§4) Thymocytes were isolated from wildtype, Rag^−/− or MKK6(Glu) transgenic mice. 293T cells were transiently transfected with the indicated expression constructs using calcium phosphate. When specified, 293T cells were treated with SB203580 (5 μM) and Wortmanin (1 μM) (Calbiochem, San Diego, Calif.). Wildtype, GSK3α^−/− and GSK3β^−/− ES cells (17), as well as WT and MKK3^−/−MKK6^−/− MEF (22) have been previously described, and were also treated with SB203580 as described above for the indicated periods of time. For in vivo inhibition of p38 MAPK, wildtype mice were intraperitoneally (i.p.) injected with SB203580 or vehicle alone, and after 18 hours brain and thymocytes were harvested to prepare whole cell lysates.
(§5) Whole cell extracts were prepared in Triton lysis buffer (TLB) as previously described (25, 26). Nuclear extracts were made from cells as previously described (27). Immunoprecipitations and Western blotting was performed as described in (8). Anti-Akt, anti-p38 MAPK, anti-Lef, anti-c-Myc and anti-Histone (Santa Cruz Biotechnology, Santa Cruz, Calif.), anti-GSK3β, anti-β-catenin, anti-phospho-p38 MAPK and antiphospho-S^9 (Cell Signaling, Beverly, Mass.) and Anti-Flag (Stratagene, La Jolla, Calif.) were used for Western blot analysis. The phospho-S^389 GSK3β antibody was made by Proteintech, Chicago, Ill., using N-C-ARIQAAA(phos-S)PPANATA (SEQ ID NO:87) for immunization. […]

β-catenin = experiment: Western blot of β-catenin in 293T cells transfected with GSK3β, p38 and MKK6; assay type: cell-based; settings: FIG. 4D
Experimental: as §4, §5

phospho-Ser^389 GSK3β = experiment: In vivo inhibition of p38 MAPK, phospho-Ser^389 GSK3β in thymocytes and brain; parameters: species or system mouse; settings: wildtype mice i.p., 18 hours, FIG. 4L
Experimental: as §2, §3

p38 MAPK = settings: SB203580 2.5 μM
Experimental: The reactions were terminated after 30 min at 30° C. by addition of SDS-PAGE sample buffer, separated by SDS-PAGE and transferred to nitrocellulose. Protein was visualized by staining with PonceauS and incorporated ^32P was visualized by autoradiography. In specific experiments, whole cell extracts were first depleted of Akt prior to p38 MAPK immunoprecipitation by being pre-incubated with anti-Akt antibody prebound to protein A-Sepharose followed by one incubation with protein A-sepharose alone.

[5] = tested on: phosphorylation of endogenous GSK3β at Ser^389; experiment: Western blot of phospho-Ser^389 of endogenous GSK3β in MEFs and ES cells; assay type: cell-based, mouse; settings: FIG. 4E-F
Experimental: as §4, §5

T1 sequence (P49841 whole entry): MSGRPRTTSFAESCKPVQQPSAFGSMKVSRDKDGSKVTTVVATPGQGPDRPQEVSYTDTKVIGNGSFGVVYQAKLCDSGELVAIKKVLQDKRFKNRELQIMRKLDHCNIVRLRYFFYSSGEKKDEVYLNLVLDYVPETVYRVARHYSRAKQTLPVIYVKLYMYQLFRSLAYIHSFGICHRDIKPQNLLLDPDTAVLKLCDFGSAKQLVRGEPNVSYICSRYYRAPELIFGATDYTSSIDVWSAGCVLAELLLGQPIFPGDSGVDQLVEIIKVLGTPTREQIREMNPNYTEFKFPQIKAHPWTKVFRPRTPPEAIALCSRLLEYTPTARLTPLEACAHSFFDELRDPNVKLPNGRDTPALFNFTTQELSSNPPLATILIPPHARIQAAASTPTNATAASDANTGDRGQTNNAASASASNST
T3 sequence (P49841 whole entry): as above
Chain of GSK3α (P49840 whole entry, species assumed): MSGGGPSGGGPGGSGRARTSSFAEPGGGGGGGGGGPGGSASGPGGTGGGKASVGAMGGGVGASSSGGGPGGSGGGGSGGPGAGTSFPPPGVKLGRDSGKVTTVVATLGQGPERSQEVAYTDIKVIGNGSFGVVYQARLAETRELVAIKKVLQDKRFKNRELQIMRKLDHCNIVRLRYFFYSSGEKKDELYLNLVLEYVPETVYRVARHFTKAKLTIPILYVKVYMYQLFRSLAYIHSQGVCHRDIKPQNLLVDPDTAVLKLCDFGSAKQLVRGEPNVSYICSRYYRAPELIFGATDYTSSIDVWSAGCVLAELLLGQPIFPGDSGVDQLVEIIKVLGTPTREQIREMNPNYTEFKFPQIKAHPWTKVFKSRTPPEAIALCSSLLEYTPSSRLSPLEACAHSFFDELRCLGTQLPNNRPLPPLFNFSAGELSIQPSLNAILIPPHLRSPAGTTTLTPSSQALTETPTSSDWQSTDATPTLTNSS
T2 sequence (P49841 whole entry T390A): as the sequence (P49841 whole entry) above, with T390A counted along it
T4 sequence (P49841 whole entry T43A): as the sequence (P49841 whole entry) above, with T43A counted along it

Molecule: GST-GSK3β: purified active wildtype GST-GSK3β fusion protein
specific activity (GSM substrate peptide): 91 µmol/µg/min

Molecule: GST-GSK3β-T^390A: purified active GST-GSK3β T^390A mutant
specific activity (GSM substrate peptide): 65 µmol/µg/min

GSK3β activity in the presence of peptide (GST-GSK3β [1]): did not
Molecule: RIQAAASTPTN [unphosphorylated-Thr^390 peptide, reference compound]

Molecule: GST-GSK3β-T^43A: purified active GST-GSK3β T^43A mutant
specific activity (GSM substrate peptide): 53 µmol/µg/min

effect on GSK3β activity (GSK3β-T^390A mutant): not
effect on GSK3β activity (wild-type GSK3β): inhibited
effect on GSK3β activity (GSK3β-T^43A mutant): inhibited
Molecule: p38 MAPK: recombinant active p38 MAPK (Cell Signaling)
effect on GSK3α activity (GSK3α): did not affect; also recorded: does not inhibit

Molecule: COC[C@H]1OC(=O)c2coc3c2[C@@]1(C)C1=C(C3=O)[C@@H]2CCC(=O)[C@@]2(C)C[C@H]1OC(C)=O [Wortmanin]
phosphorylation of Ser^9 of GSK3β [2]: impaired

Molecule: GRPRTTS(PO3H2)FAE (GRPRTT[pS]FAE) [phospho-Ser^9 peptide]
inhibition of GSK3β in vitro (GST-GSK3β [3]): specifically inhibits GSK3β in vitro

GSK3β activity in the presence of peptide (GST-GSK3β [1]): inhibited GSK3β activity
Molecule: RIQAAAST(PO3H2)PTN (RIQAAAS[pT]PTN) [phospho-Thr^390 peptide]
inhibition of GSK3β activity compared with phospho-Ser^9 peptide (GST-GSK3β [1]; various concentrations of peptides, FIG. 3H-J): as efficiently as the phospho-Ser^9 peptide

Molecule: C[S+]([O-])c1ccc(-c2nc(-c3ccncc3)c(-c3ccc(F)cc3)[nH]2)cc1 (stereo not drawn) [SB203580]
phosphorylation of Ser^389 [4]: abrogated
amount of β-catenin (β-catenin): decreased
phosphorylation of Ser^9 of GSK3β [2]: not affected
levels of phospho-Ser^389 GSK3β (phospho-Ser^389 GSK3β; brain): reduced
levels of phospho-Ser^389 GSK3β (phospho-Ser^389 GSK3β; thymocytes): reduced
phosphorylation of GSK3β by purified recombinant activated p38 MAPK (p38 MAPK; FIG. 2E): blocked
phosphorylation of recombinant catalytically-inactive GSK3β by immunoprecipitated p38 MAPK (p38 MAPK; p38 MAPK from MKK6 thymocytes or MKK6-transfected 293T cells, FIG. 2C): blocked
phosphorylation of endogenous GSK3β at Ser^389 ([5]; embryonic stem (ES) cells): inhibited
phosphorylation of endogenous GSK3β at Ser^389 ([5]; wild-type mouse embryonic fibroblasts (MEFs)): inhibited

effect on GSK3β activity (GSK3β-T^390A mutant): inhibited
effect on GSK3β activity (wild-type GSK3β): inhibited
effect on GSK3β activity (GSK3β-T^43A mutant): inhibited
B1: Akt: recombinant active Akt (Cell Signaling) (protein)
chain: MNDVAIVKEGWLHKRGEYIKTWRPRYFLLKNDGTFIGYKERPQDVDQRESPLNNFSVAQCQLMKTERPRPNTFIIRCLQWTTVIERTFHVETPEEREEWATAIQTVADGLKRQEEETMDFRSGSPSDNSGAEEMEVSLAKPKHRVTMNEFEYLKLLGKGTFGKVILVKEKATGRYYAMKILKKEVIVAKDEVAHTLTENRVLQNSRHPFLTALKYSFQTHDRLCFVMEYANGGELFFHLSRERVFSEDRARFYGAEIVSALDYLHSEKNVVYRDLKLENLMLDKDGHIKITDFGLCKEGIKDGATMKTFCGTPEYLAPEVLEDNDYGRAVDWWGLGVVMYEMMCGRLPFYNQDHEKLFELILMEEIRFPRTLGPEAKSLLSGLLKKDPTQRLGGGSEDAKEIMQHRFFANIVWQDVYEKKLSPPFKPQVTSETDTRYFDEEFTAQMITITPPDQDDSMECVDSERRPHFPQFSYSASGTA
